Test results from the DeepSol protein solubility set.

Assay: soluble on expression in E. coli; label from the status in PepcDB or PDB records

Sequence	soluble on expression in E. coli
MKQRQWQGWGPGEQAEQQHYLVQPRALAGGGDIRHVSEFLRASGWRDKSKTCGPLLMESPDRTVRVAYDPYILPGGWTIHGRTGAKGEWSAHLGLQTPVEIVAGLTDALTRPRSAHAPSVWEPLQEQNWHTRFADQNYTATSPDGAAWMQYRQDADGSAMWWTGAKDEEGNGWTAHFTPNTPMHLVQAFSTELAGPDPVMRPRGRVPHSAQIRTWSVSVKPSQLSAWQQARITAARAATWARSSTRGTRPRTTARPHTPTGGARTRRLEHHHHHH	not soluble
MGSDKIHHHHHHMIQSVRIKNFKNFKNTKIDGFTKLNIITGQNNAGKSNLLEALYYLVGKSMHPCTNVLEIYDNIRKEPLTSESKSLMFYGLDTKEEIQIVTTLDNNQTLDLQIKFIASENQKVIESQIIPTAEQTQMSSQLNFTLKKNNEEIYNDHLNIAKVPNFPPIPNQSGYNRQFKNFDSNQLQKLLPFESAVIIPSDVVYRQAHMIQAVSKICSNNQLEEELNKHLNQFDNNIQAISFNTNNQLKLKVKDIKEKVPLSVFGDGLKKYLHIVSAFMADNAKTIYIDEVENGLHFSRMRLLLKNTIDFINNNKDGNLQVFMTTHSQEFIEILDQVIREKDFAHQTKLFCLKQDDQYVIPRTYYGENLEYYFENEENLFG	not soluble
MGSDKIHHHHHHMQWFENPLFSERVEFLESSQYWPAERHAVYQLRSLRRLVHHVAAHVPFYRDFMAASGIRPEDILSIEDIKRFPIIDKKVIQAQPEAFLADGSDRATLLHRTTGGSTGTPLTVWFDGDLLARDKANTEHYMRAIGLDIFTWKSIRLYGDKIDPEITDTGRYWKLVDGRRLVMSCYHITHETAPAYVAELNRFRPRYIHTRPSSILPLAKYILQDGLALDPIRTIVSDGEYLTDGQRAVIERAFQGRLYNIYGHTEACVVGHPCHHSDGLHLMPQVGVTELLDEQGRDVTEPGGRGELVVTGFNNPVMPLIRYRTGDVAYLGEGGCRCGRHYQMLKGIEGRLQDYVIDAAGNPTPLAPAVFNYNDMDWKGIKEFKVIQDTPGELTILIVLEAELAADPAGSKAVLEQRIGAILAGFRISITLVDDIPKTKIGKHRYLDQRLDVKELVSFR	not soluble
MLMIKGIIFDMDGVLFDTEPFYLRRREDFFKTKGIPIDHLNSKDFIGGNLQELWKELLGKNRDDAIVKAITTDYDAYKQAHKPPYQKLLITEVNSCLEQLEKQGIKLAVASNSKRQDVLLALETTQIKDYFEIILAREDVSRGKPYPDIYNKAVQKLGLQKKQLLVVEDSQKGIAAAKAANLTVFAITDYRYGIDQSQADHKIDHLGQLCVKIGCFGS	not soluble
MGSDKIHHHHHHMTLELIPVGISACLLGNPVRFDGGHKRLTFAVEELAPYFRFESVCPEMAIGLPVPRPALRLVREGESHVTMRASNGSSLDVTQQITVFSADKVSQLQHLCGYIVCAKSPSCGMERVKVYDEAQKNARKSGVGLFTQELMRQMPWLPVEEDGRLHDSGLRENFIERVYALHELNQLWKNGLSRGALIAFHSRYKLLLLAHSQPEYRELGPFVAGIDKWESLEEYVVEYRTRLMKLLSTPATRRNHTNVLMHVQGYFRRQLSSQQRQELAQLIDRYRQGLQPLLAPITLLKHYMAEYPDAYLAQQRYFEPYPEALRLRYGH	not soluble
MAHHHHHHMRHSTYVEVCLRNIAYNVECIRRIAGKAELIPMVKGNAYGHGMGKVSEYLHNVCGVHTFGVASLGEALELIESQPSIAEKAQNEIFVFSDTEVLNEGCQSYYQPCGRWAVRLTPILGTLPQLKAFCASNAFNNTKLCLKLETGMNRLGLRFDELEEAVPILKQRGGVDLLLQHFGIAGSVERLAETLNHYEAFKNAKKFLHDSGVEVRATSVSNSGAVEQRIGLEETYIRPGIMLYGPRSVTSKNLWNGKFASCFYTKVLHHFPLRKGEGVGYDLTPVKADSVIVMLPIGYADGFLCTYKGMPIKVTPEDAAEPIIGTVHGRINMDMAAVVVYPEEVGKNIGNIMAAVKKESRIHVWGDDIEEKAVSVGAIPHQLTCGLSIRVPRIYM	not soluble
MGSDKIHHHHHHMGSQLFVRNGRKMQLTESGKKLYIATHKAFDTLLKGFNSIQTEDVAGTLTITSTQAFTSLWLMPRLYKFSIKHPEIKVKVVSSNGLEDLRRGHIDLAIRFITNKEVDTSDDMTYEFIAEDHVYPACSPQLMKEYNFKEPQDVLKCWLVSLENQGSIDWRTWFKEAGVENYQCHKKWTEVSSGDMALSAVLSGHGFTLASQALFSQYVITGQLVIPFNIKHPISFKRYFVFDPNSAKKERVNVFTTWLKEETLQDEKSTLEAISYGSL	not soluble
MGSDKIHHHHHHMELVYKITYHRIQAHYLPKLVQAVQFVSEENLWKQGESVNSIGGIVLHICEHMQRNTSRYKNPNIVFEKGIEEYFPTKRQHTEVLLQYVEKVFDEWGKAYIQAWEEKRHIELHSLLHLVEHTSYHLGQIVDRTKLIKGQQFNFCQNGINEKNLRTRVETSKF	not soluble
GSMPRVVPDQRSKFENEEFFRKLSRECEIKYTGFRDRPHEERQTRFQNACRDGRSEIAFVATGTNLSLQFFPASWQGEQRQTPSREYVDLEREAGKVYLKAPMILNGVCVIWKGWIDLHRLDGMGCLEFDEERAQQEDALAQQ	soluble
MAHHHHHHMPSFFPSMPPCDRAAMLTVCEARRQYLAAHVTQLYANTNPAELWSSIVKYRERNSTELLDTVNSYDELRLSYSGYRKVVYSLVFRVSPEEEKQASVEERESRKKLYFNHPFLSPATFLAFPRAEDGTIPAVPMYAFAAKRLLLYRMRVELELVARVLPPSLQDPATRVTHRLLCPPSSSSPLSNGLTQEDIEAFLYDLLPNLRLVRDMPPWMQPYYLCHASRKFMFMCDTRRTGAISIESMMKSDVFSELLRVFESDANDAIVVFTKGCTVDVAASLVTADAAEDDTIPALVLFHEGEGNNQDDMYIVKTLTDGVVLEVRRGQLYWNSGSTEFLQPDVLCMDNWFSLALMARIYEHFTSLDIDGDGVLTVDELSRYSDGSFTRLVIERAFECHVPHSGKRHIMDYKTYLDFVIATEHAATLPAMKYIWSILDLEENRKFVTVETLRCFCKAIANELIANGLMTDISAQSILSEVIDMINPKWHEWVELDDIVRSGHQATVLPILLSYRNFYAYDCREQTAAAANDEYA	not soluble
MGSDKIHHHHHHMSTIQIKQLNFAYDGQAPLFTNTTLDLDTNWHLGLVGRNGRGKTTLLRILQQALPYSGTVTVPLQLQYFPQTLDETQLTLTAAQAITDVAQWQLERELNLLHADPNILWRPFVDLSGGEQTKVRLALLFIQDNGVALIDEPTNHLDLRSRRQVAAYLQQKPGFIVVSHDRDFLDSITDHTLAIQRQQITLYQGNFSTFMTEKERQDQTELAKNGQLKTEITRLKRTTHDKKVWAENKEKSIYGNPHIKDSGHNAGRGFISARAARTMKKSKNLEHRMTKEIDEKESLLKNLEKVDPLTMLPVSTHHHQLVVAEKVQVGFDQPLFQPISFTLTRGDRIAIVGDNGSGKSTLIRALLKQFTGMQSGHLTLAPVSLSLVRQQYTDNRGTLVDFAKQHQLSRETLLNNLRKLGMPRADFNTSIEHLSMGQQKKVELARSLATPGALYVWDEPLNYLDTYNQDQLVAAIKHYQPTMLFVEHDEHFIEQVATKIIRLQP	not soluble
MGSDKIHHHHHHMLDENEDIHPLFAGAPATTEFKKLRKRIVRYTREAIEQYGMVERRADGSTPKWLVCLSGGKDSYTLLAVLYELKWRGLLPVDLLACNLDQGQPGFPSTVLPEFLDRMGVPNRIEYQDTYSVVVDKVPQGRTYCALCSRLRRGNLYRIAREEGCSAVVLGHHRDDILETFFMNLFHGGRLATMPPKLVNEEGDLFVFRPLAHVAEADCEKFARAMNYPIIPCDLCGSQDGLQRQQVKQILDGWEKNRPGRRQVMFRALMNARPSHLLDPKLFDFQGLELGSREKGENFGEIPLLR	not soluble
MAHHHHHHMTAPITGPMLLGAASVDVLRSMLTLDPFQCLVAQRLCEELSCQRFPKVTLLIFKSMPDPRLLQLRSSVGEEVTVTVSRLNDLRCKFTLGDKANYEHLYNMRTPAKPRTVCTFDIVLPTSRLTGLSRCIDHLIAAAERMVMPRITVEALCCTEQDERRKIVREEKDHWDFLFHGLRVGSFITVLRRLPSITAMHAPPIPHDYTFSAALSNPGFVLPSHYCGRLATVPTGAKGVSTPFIAIAEPAIPTGAKVSIRCQLIRGNQGQILGGGYYFGVCTPSFHWKHKDLNVHTGEVWALHDMDDSPWRLRHLRPDATFPVAAEPRCIIVSGDIIRLYIDRTARVMHAFRTPVNGDEIPLGLHL	not soluble
MRGSHHHHHHGMASMTGGQQMGRDLYDDDDKDPMSVIKPDMKIKLRMEGAVNGHPFAIEGVGLGKPFEGKQSMDLKVKEGGPLPFAYDILTTVFCYGNRVFAKYPENIVDYFKQSFPEGYSWERSMNYEDGGICIATNDITLDGDCFIYEIRFDGVNFPANGPVMQKRTVKWEPSTEKLYVRDGVLKGDVNMALLLEGGGHYRCDFKTTYKAKKVVQLPDYHFVDHRIEIKSHDKDYNNVNLHEHAEAHSGLPRQAK	soluble
GPGSMMEYADAYVGGGGRLRPGAQGSTTATGASRPYLEQRTVAPVTSALGQELDRLVGGTLAAQEYRDRLEALTRSVQASDEKVLNLTRLVKLSQSIQEEKEADLRRQNDELRARLKRQEQLTAQLQRQLEGMQGAVDAQALHHVVERLEGQMSACRGKQEEQWVAVQQRIGELEDRLQRASTCTAERCEERLMQLDERLQQVTQSTADATNQWAKRNFVRFKEQVDSLRADLDDVRGGQKELKSTVQSASCRAEIEYKKVLLLLQQKTKEADALTSLVEKELQHLQKVAHRHQILASKDITPAFEFDEKPYDALKFAAGEGKRRGAEAAAERRRR	not soluble
MSLNSESLGLLQEFLKTHKYKEFRDQAKNLRAPFILQAIVSTPTTVKYYTQGRLIKCCETDSTGNITTSYTYNDKGQLTTTLSVTEKNGQPINEVQTSRLYDPQGHCIFEVKTNPKTKTDFYRRARRIGIDGSIESDSLKYMDGRYTVSSYNKQGLLTETKEYNKNGEMEGYTVNKYDDKGRMTESQHQNMLFVNSPNQILSQKELYEYDKYGYLTRIVYQRIFGNSQKTSGCLTCLYDEYGNRIDGDSYYEYDNTGQWICRTSYDNPQQVERIQYIYKEGHHHHHH	not soluble
MDKSELFLTFEAKVKGKKINLPDLKIADGVISTEALASALNASAAIAPDAFQRIIKQAYDANIMFLIQQAQIRAQEINKGEVKDWKDLVANAKDAPNQDVTVEVQAYASPDGGVELNEKLSEQREKNTTTALKKQFQKSNIKDVEINAHYTAQDWEGFKQLVEKSDIQDKELVLRVLSMYPDPEQREQEIKNISTVFRQLADDILPQLRRSRLIANVEIIGKSDDEIKRLAAQNPGRLTVEELLYSATLLESPAQKE	not soluble
GKRLYNVKQSALSIRQIDLQRRHIEQSIRMGIKNQNDRLRTCMQRFVASEEAVRSAEKGYQIAEKRYQTGEGTLVELNDADVALLQARLNYNQAIFDFMTAKAELDKMNGMGIPEQ	not soluble
MRGSHHHHHHGSASFLKKTMPFKTTIEGTVNGHYFKCTGKGEGNPFEGTQEMKIEVIEGGPLPFAFHILSTSCMYGSKTFIKYVSGIPDYFKQSFPEGFTWERTTTYEDGGFLTAHQDTSLDGDCLVYKVKILGNNFPADGPVMQNKAGRWEPGTEIVYEVDGVLRGQSLMALKCPGGRHLTCHLHTTYRSKKPASALKMPGFHFEDHRIEIMEEVEKGKCYKQYEAAVGRYCDAAPSKLGHN	soluble
